Source: patent US20250296912A1, “AFFINITY ILLUDOFULVENE CONJUGATES” (Illudent, Inc., published 2025)
The star is where a group is joined. 3‑aminopropyl acylfulvene = analog 211, C-terminal Leu bound as amide to it; Mu = 4-morpholine-carbonyl, O=C(N1CCOCC1)*

Molecular target: prostate specific antigen (Homo sapiens)
Experiment: cell-based or functional assay

Mu-HSSKLQL-{3‑aminopropyl acylfulvene} [Analog 221 (Mu-His-Ser-Ser-Lys-Leu-Gln coupled to analog 207, 211-leucine)]
IC50 (48 hour exposure), Prostate DuPro (trace PSA): 13 µM
IC50 (48 hour exposure), Prostate LnCAP (positive PSA): 0.8 µM
